From paper PMC5945783, “Relationship Between Homodimeric Glucocorticoid Receptor and Transcriptional Regulation Assessed via an In Vitro Fluorescence Correlation Spectroscopy-Microwell System” (Scientific Reports, 2018)

Experiments:
[1] = target: the molecule itself; assay: fluorescence correlation spectroscopy (FCS), particle brightness (counts per particle) analysis; FCS-microwell system: single transfected U2OS cell lysed in a 113 pL PDMS microwell; absence of Dex; lysis buffer with 0.1% SDS and Benzonase; bimolecular reaction model fitted in the 0-50 nM range; dimer to monomers
[2] = target: the molecule itself; assay: fluorescence correlation spectroscopy (FCS), particle brightness (counts per particle) analysis; FCS-microwell system: single transfected U2OS cell, 500 nM Dex at 37 °C for 20 min, then lysed in a 113 pL PDMS microwell; lysis buffer with 0.1% SDS and Benzonase; bimolecular reaction model fitted in the 0-50 nM range; dimer to monomers

Protein	Kd [1]	Kd [2]
EGFP-fused human glucocorticoid receptor α C421G mutant (natural protein, UniProt P04150 1-777, looked up, glucocorticoid receptor α, human, with C421G; also called EGFP-GR/C421G; GR/C421G; source: U2OS, transfected (ViaFect), in single-cell lysate) MDSKESLTPGREENPSSVLAQERGDVMDFYKTLRGGATVKVSASSPSLAVASQSDSKQRRLLVDFPKGSVSNAQQPDLSKAVSLSMGLYMGETETKVMGNDLGFPQQGQISLSSGETDLKLLEESIANLNRSTSVPENPKSSASTAVSAAPTEKEFPKTHSDVSSEQQHLKGQTGTNGGNVKLYTTDQSTFDILQDLEFSSGSPGKETNESPWRSDLLIDENCLLSPLAGEDDSFLLEGNSNEDCKPLILPDTKPKIKDNGDLVLSSPSNVTLPQVKTEKEDFIELCTPGVIKQEKLGTVYCQASFPGANIIGNKMSAISVHGVSTSGGQMYHYDMNTASLSQQQDQKPIFNVIPPIPVGSENWNRCQGSGDDNLTSLGTLNFPGRTVFSNGYSSPSMRPDVSSPPSSSSTATTGPPPKLGLVCSDEASGCHYGVLTCGSCKVFFKRAVEGQHNYLCAGRNDCIIDKIRRKNCPACRYRKCLQAGMNLEARKTKKKIKGIQQATTGVSQETSENPGNKTIVPATLPQLTPTLVSLLEVIEPEVLYAGYDSSVPDSTWRIMTTLNMLGGRQVIAAVKWAKAIPGFRNLHLDDQMTLLQYSWMFLMAFALGWRSYRQSSANLLCFAPDLIINEQRMTLPCMYDQCKHMLYVSSELHRLQVSYEEYLCMKTLLLLSSVPKDGLKSQELFDEIRMTYIKELGKAIVKREGNSSQNWQRFYQLTKLLDSMHEVVENLLNYCFQTFLDKTMSIEFPEMLAEIITNQIPKYSNGNIKKLLFHQK	400 nM	220 nM
EGFP-fused human glucocorticoid receptor α A458T mutant (natural protein, UniProt P04150 1-777, looked up, glucocorticoid receptor α, human, with A458T; also called EGFP-GR/A458T; GR/A458T; source: U2OS, transfected (ViaFect), in single-cell lysate) MDSKESLTPGREENPSSVLAQERGDVMDFYKTLRGGATVKVSASSPSLAVASQSDSKQRRLLVDFPKGSVSNAQQPDLSKAVSLSMGLYMGETETKVMGNDLGFPQQGQISLSSGETDLKLLEESIANLNRSTSVPENPKSSASTAVSAAPTEKEFPKTHSDVSSEQQHLKGQTGTNGGNVKLYTTDQSTFDILQDLEFSSGSPGKETNESPWRSDLLIDENCLLSPLAGEDDSFLLEGNSNEDCKPLILPDTKPKIKDNGDLVLSSPSNVTLPQVKTEKEDFIELCTPGVIKQEKLGTVYCQASFPGANIIGNKMSAISVHGVSTSGGQMYHYDMNTASLSQQQDQKPIFNVIPPIPVGSENWNRCQGSGDDNLTSLGTLNFPGRTVFSNGYSSPSMRPDVSSPPSSSSTATTGPPPKLCLVCSDEASGCHYGVLTCGSCKVFFKRAVEGQHNYLCTGRNDCIIDKIRRKNCPACRYRKCLQAGMNLEARKTKKKIKGIQQATTGVSQETSENPGNKTIVPATLPQLTPTLVSLLEVIEPEVLYAGYDSSVPDSTWRIMTTLNMLGGRQVIAAVKWAKAIPGFRNLHLDDQMTLLQYSWMFLMAFALGWRSYRQSSANLLCFAPDLIINEQRMTLPCMYDQCKHMLYVSSELHRLQVSYEEYLCMKTLLLLSSVPKDGLKSQELFDEIRMTYIKELGKAIVKREGNSSQNWQRFYQLTKLLDSMHEVVENLLNYCFQTFLDKTMSIEFPEMLAEIITNQIPKYSNGNIKKLLFHQK	390 nM	370 nM
